The values that follow come from patent publication US20250236653A1 (ONKO INNATE, published 2025).

For experiment [1], the target named is T1, human OX40 (human, UniProt P43489 29-277).
T1 sequence (looked up): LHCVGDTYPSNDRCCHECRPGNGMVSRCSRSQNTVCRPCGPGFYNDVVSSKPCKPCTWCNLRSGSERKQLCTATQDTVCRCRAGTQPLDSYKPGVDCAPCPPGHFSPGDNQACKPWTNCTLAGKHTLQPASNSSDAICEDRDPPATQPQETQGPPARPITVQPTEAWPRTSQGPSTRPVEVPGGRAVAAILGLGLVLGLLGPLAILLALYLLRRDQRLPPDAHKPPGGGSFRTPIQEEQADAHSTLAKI
As to the kind of experiment: cell-based or functional assay.

For experiment [2], the target named is T1, human OX40. In words: flow cytometry on hOX40-Jurkat-NF-κB cells. How it is done:
Stained hOX40-Jurkat-NF-κB and cOX40-Jurkat-NF-κB cells were analyzed by flow cytometry using a CytoFLEX (Beckman Coulter), the results of which are depicted in FIGS. 78 and 79, respectively, and summarized in FIG. 80.
Binding of each of the sequence optimized IL-12 ABD fusion proteins to hOX40-Jurkat-NF-κB cells was performed as described in Example 16, the results of which are depicted in FIG. 87 and summarized in FIG. 88.

The target in experiment [3] is human IL-12 receptor (human, UniProt P42701 24-662; Q99665 24-862). As to the kind of experiment: cell-based or functional assay.

Positions count from the first letter of the chain named. “And” between values parts separate entries of the source, which are not always exact repeats. Identical values can stand only once.

Sequence of human IL-12 receptor (Q99665 24-862 limits assumed, chain 2 of 2, other chains not shown): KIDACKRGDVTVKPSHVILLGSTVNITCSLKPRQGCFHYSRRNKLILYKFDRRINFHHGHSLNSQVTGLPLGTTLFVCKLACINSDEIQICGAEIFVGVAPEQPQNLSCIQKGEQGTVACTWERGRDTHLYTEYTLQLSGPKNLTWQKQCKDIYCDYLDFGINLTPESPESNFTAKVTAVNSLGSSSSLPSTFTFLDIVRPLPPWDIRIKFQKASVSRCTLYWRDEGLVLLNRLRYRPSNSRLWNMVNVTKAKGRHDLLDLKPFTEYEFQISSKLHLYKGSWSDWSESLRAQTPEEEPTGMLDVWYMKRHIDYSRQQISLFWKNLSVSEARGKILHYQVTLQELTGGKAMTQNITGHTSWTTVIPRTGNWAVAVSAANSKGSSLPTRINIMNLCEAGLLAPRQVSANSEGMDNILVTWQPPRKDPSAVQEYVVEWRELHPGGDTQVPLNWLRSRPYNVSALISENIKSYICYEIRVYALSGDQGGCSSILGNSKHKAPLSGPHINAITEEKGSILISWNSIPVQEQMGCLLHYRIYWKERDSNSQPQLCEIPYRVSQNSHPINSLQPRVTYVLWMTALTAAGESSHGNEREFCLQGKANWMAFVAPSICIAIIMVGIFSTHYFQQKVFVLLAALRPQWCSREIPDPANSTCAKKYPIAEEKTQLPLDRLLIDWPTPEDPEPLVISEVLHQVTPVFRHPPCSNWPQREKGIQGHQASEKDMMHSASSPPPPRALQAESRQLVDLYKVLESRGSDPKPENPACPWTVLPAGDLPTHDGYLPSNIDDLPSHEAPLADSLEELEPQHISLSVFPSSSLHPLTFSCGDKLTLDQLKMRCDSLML

B1: mono-mut23-20E5_V4 (Fc fusion)
chain: IWELKKDVYVVELDWYPDAPGEMVVLTCDTPEEDGITWTLDQSSEVLGSGKTLTIQVKEFGDAGQYTCHKGGEVLSHSLLLLHKKEDGIWSTDILKDQKEPKNKTFLRCEAKNYSGRFTCWWLTTISTDLTFSVKSSRGSSDPQGVTCGAATLSAERVRGDNKEYEYSVECQEDSACPAAEESLPIEVMVDAVHKLKYENYTSSFFIRDIIKPDPPKNLQLKPLKNSRQVEVSWEYPDTWSTPHSYFSLTFSVQVQGKSKREKKDRVFTDKTSATVICRKNASISVRAQDRYYSSSWSEWASVPCSGGGGSGGGGSGGGGSGGGGSGGGGSRNLPVATPDPGMFPCLHHSQNLLRAVSNMLQKARQTLEFSPCTSEEIDHEDITKDKTSTVEACLPLELTKNESCLNSRETSFITNGSCLASRKTSFMMALCLSSIYEDLKMYQVEFKTMNAKLLMDPKRQIFLDQNMLAVIDELMQALNFNSETVPQKSSLEEPDFYKTAIKLCILLHAFRIRAVTIDRVMSYLNASGGGGSGGGGSEPKSSDKTHTCPPCPAPEFEGGPSVFLFPPKPKDTLMISRTPEVTCVVVDVSHEDPEVKFNWYVDGVEVHNAKTKPREEQYNSTYRVVSVLTVLHQDWLNGKEYKCKVSNKALPASIEKTISKAKGQPREPQVCTLPPSRDELTKNQVSLSCAVKGFYPSDIAVEWESNGQPENNYKTTPPVLDSDGSFFLVSKLTVDKSRWQQGNVFSCSVMHEALHNHYTQKSLSLSPG
heavy: QVQLVQSGAEVKKPGASVKVSCKASGYTFTSYVMHWVRQAPGQRLEWIGYINPYNEGTKYNEKFKGRATLTSDKSASTAYMELSSLRSEDTAVYYCANYYGSSLSMDYWGQGTLVTVSSASTKGPSVFPLAPSSKSTSGGTAALGCLVKDYFPEPVTVSWNSGALTSGVHTFPAVLQSSGLYSLSSVVTVPSSSLGTQTYICNVNHKPSNTKVDKKVEPKSCDKTHTCPPCPAPEFEGGPSVFLFPPKPKDTLMISRTPEVTCVVVDVSHEDPEVKFNWYVDGVEVHNAKTKPREEQYNSTYRVVSVLTVLHQDWLNGKEYKCKVSNKALPASIEKTISKAKGQPREPQVYTLPPCRDELTKNQVSLWCLVKGFYPSDIAVEWESNGQPENNYKTTPPVLDSDGSFFLYSKLTVDKSRWQQGNVFSCSVMHEALHNHYTQKSLSLSPG
light: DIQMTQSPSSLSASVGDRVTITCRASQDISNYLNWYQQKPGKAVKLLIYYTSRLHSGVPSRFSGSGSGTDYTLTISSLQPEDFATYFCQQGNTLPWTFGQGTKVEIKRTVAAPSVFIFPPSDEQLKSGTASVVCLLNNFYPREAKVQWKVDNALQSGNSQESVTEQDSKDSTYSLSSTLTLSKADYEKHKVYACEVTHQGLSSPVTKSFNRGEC
As to B1, in experiment [1], the “IFNγ release by conventional CD4+ T cells (AlphaLISA), EC50, two PBMC donors” value was 27.7 pM and 19.5 pM; the “IFNγ release by induced Treg cells (AlphaLISA), EC50, two PBMC donors” value was 5.7 pM and 13.8 pM.

B2: mono-mut23-20E5_V5 (Fc fusion)
chain: B1 chain
heavy: B1 heavy with E56A
light: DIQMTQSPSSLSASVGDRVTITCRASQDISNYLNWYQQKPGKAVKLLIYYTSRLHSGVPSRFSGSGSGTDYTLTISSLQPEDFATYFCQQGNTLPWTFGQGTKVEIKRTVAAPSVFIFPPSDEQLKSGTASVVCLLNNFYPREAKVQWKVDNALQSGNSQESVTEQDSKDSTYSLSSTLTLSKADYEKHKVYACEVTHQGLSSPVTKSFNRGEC
On to B2, for which the binding result in experiment [2] was “binds”.

B3: mono-mut23-12H3_V5 (Fc fusion)
chain: B1 chain
heavy: QVQLVQSGAEVKKPGSSVKVSCKASGYTFKDYTMHWVRQAPGQGLEWIGGIYPNNAGSTYNQNFKDRVTLTADKSTSTAYMELSSLRSEDTAVYYCARMGYHGPHLDFDVWGQGTTVTVSSASTKGPSVFPLAPSSKSTSGGTAALGCLVKDYFPEPVTVSWNSGALTSGVHTFPAVLQSSGLYSLSSVVTVPSSSLGTQTYICNVNHKPSNTKVDKKVEPKSCDKTHTCPPCPAPEFEGGPSVFLFPPKPKDTLMISRTPEVTCVVVDVSHEDPEVKFNWYVDGVEVHNAKTKPREEQYNSTYRVVSVLTVLHQDWLNGKEYKCKVSNKALPASIEKTISKAKGQPREPQVYTLPPCRDELTKNQVSLWCLVKGFYPSDIAVEWESNGQPENNYKTTPPVLDSDGSFFLYSKLTVDKSRWQQGNVFSCSVMHEALHNHYTQKSLSLSPG
light: DIQMTQSPSSLSASVGDRVTITCKASQDVGAAVAWYQQKPGKAPKLLIYWASTRHTGVPSRFSGSGSGTDFTLTISSLQPEDFATYYCQQYINYPLTFGGGTKVEIKRTVAAPSVFIFPPSDEQLKSGTASVVCLLNNFYPREAKVQWKVDNALQSGNSQESVTEQDSKDSTYSLSSTLTLSKADYEKHKVYACEVTHQGLSSPVTKSFNRGEC
In experiment [2], B3 displayed an EC50 of 113 nM.

B4: mono-mut23-12H3_V6 (Fc fusion)
chain: B1 chain
heavy: B3 heavy with A56G, M99L
light: B3 light
With B4, a half-maximal effect in experiment [2] (EC50) was put at 645 nM. This EC50 lies about 5.7-fold higher than the previous one.

B5: IL-12 Fc mut9 (Fc fusion)
chain: RNLPVATPDPGMFPCLHHSQNLLRAVSNMLQKARQTLEFPPCTSEEIDHEDITKDKTSTVEACLPLELTKNESCLNSRETSFITNGSCLASRKTSFMMALCLSSIYEDLKMYQVEFKTMNAKLLMDPKRQIFLDQNMLAVIDELMQALNFNSETVPQKSSLEEPDFYATKIKLCILLHAFRIRAVTIDRVMSYLNAS
Turning to B5, the “SEAP of CCR8-HEK-Blue IL-12 reporter cells (OD 650 nm), EC50” value in experiment [3] worked out at 12.5 nM.

B6: commercially available recombinant IL-12 (rIL-12, Miltenyi) (ligand)
chain 1: B5 chain with P40Y, A168K
chain 2: IWELKKDVYVVELDWYPDAPGEMVVLTCDTPEEDGITWTLDQSSEVLGSGKTLTIQVKEFGDAGQYTCHKGGEVLSHSLLLLHKKEDGIWSTDILKDQKEPKNKTFLRCEAKNYSGRFTCWWLTTISTDLTFSVKSSRGSSDPQGVTCGAATLSAERVRGDNKEYEYSVECQEDSACPAAEESLPIEVMVDAVHKLKYENYTSSFFIRDIIKPDPPKNLQLKPLKNSRQVEVSWEYPDTWSTPHSYFSLTFCVQVQGKSKREKKDRVFTDKTSATVICRKNASISVRAQDRYYSSSWSEWASVPCS
For the molecule B6, the “SEAP of CCR8-HEK-Blue IL-12 reporter cells (OD 650 nm), EC50” value in experiment [3] turned out to be 0.17 nM.

B7: commercially available recombinant mouse IL-12 (rmIL-12, BioLegend) (ligand)
chain 1: RVIPVSGPARCLSQSRNLLKTTDDMVKTAREKLKHYSCTAEDIDHEDITRDQTSTLKTCLPLELHKNESCLATRETSSTTRGSCLPPQKTSLMMTLCLGSIYEDLKMYQTEFQAINAALQNHNHQQIILDKGMLVAIDELMQSLNHNGETLRQKPPVGEADPYRVKMKLCILLHAFSTRVVTINRVMGYLSSA
chain 2: MWELEKDVYVVEVDWTPDAPGETVNLTCDTPEEDDITWTSDQRHGVIGSGKTLTITVKEFLDAGQYTCHKGGETLSHSHLLLHKKENGIWSTEILKNFKNKTFLKCEAPNYSGRFTCSWLVQRNMDLKFNIKSSSSSPDSRAVTCGMASLSAEKVTLDQRDYEKYSVSCQEDVTCPTAEETLPIELALEARQQNKYENYSTSFFIRDIIKPDPPKNLQMKPLKNSQVEVSWEYPDSWSTPHSYFSLKFFVRIQRKKEKMKETEEGCNQKGAFLVEKTSTEVQCKGGNVCVQAQDRYYNSSCSKWACVPCRVRS
As for B7, the “IFNγ in the supernatant of activated/expanded human T cells (AlphaLISA), EC50” value in experiment [3] worked out at 19.3 pM.
